Assay results reported in US20190338026A1 (University of Texas, published 2019).
Positions count from the first letter of the chain named.

T1: LAIR1 on LAIR1 reporter cells (human, UniProt Q6GTX8 22-165, limits assumed)
T1 chain: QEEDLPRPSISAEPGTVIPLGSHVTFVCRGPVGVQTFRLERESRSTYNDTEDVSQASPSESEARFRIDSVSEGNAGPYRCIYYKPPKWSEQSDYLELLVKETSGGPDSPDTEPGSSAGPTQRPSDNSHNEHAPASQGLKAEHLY

T2: human LAIR1 extracellular domain (ECD) protein with 6 HIS tag at the C-terminus (human, UniProt Q6GTX8 22-165)
T2 construct: Produced recombinantly in HEK293 cells; the whole entry is named here; also called LAIR1 ECD; LAIR1-ECD
T2 chain: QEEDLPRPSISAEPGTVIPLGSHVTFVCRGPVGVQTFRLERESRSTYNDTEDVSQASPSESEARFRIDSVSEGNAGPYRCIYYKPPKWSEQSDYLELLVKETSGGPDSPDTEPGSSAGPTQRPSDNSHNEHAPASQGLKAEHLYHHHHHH

B1: LA-63 (antibody, V domains shown)
VH: EQSVEESGGRLVAPGGSLTLTCTVSGFSLSSYAMSWVRQAPGKGLEWIGVMYNSGSAYYASWAKGRFTISRTSTTVDLKVTSLTTEDTATYFCGRGGSNSAWGDDLWGPGTLVTVSS
VL: ELDMTQTPASVSEPVGGTVTIKCQASQSISIRYFSWYQQKPGQPPKLLIYGASTLASGVPSRFKGSGSGTDFTLTISDLECADAATYYCQDSNYNSNYFGAFGGGTEVVVK
notes: Rabbit monoclonal IgG; also called mAb LA-63
B2: LA-87 (antibody, V domains shown)
VH: QSVKESGGRLVTPGGSLTLTCTVSGFSLSNYNIQWVRQAPGKGLEWIGFISPAGNGYYASWAKGRFTISKASSTTVELKMTSLTASDTATYFCARHWDLWGPGTLVTISS
VL: ELVLTQTASSVSAAVGGTVTISCQSSQSVYSNYLSWFQQKPGQPPKELVYWTSTLQSGVPSRFSGSGSGTQFTLTISDLECDDAATYYCLGGYSGWFYAFGGGTEVVVK
notes: Rabbit monoclonal IgG; also called mAb LA-87
B3: LA-95 (antibody, V domains shown)
VH: EQSLKESGGRLVTPGGSLTLTCTASGFDINNYNIQWVRQAPGKGLEWIGFISPAGNEYSATWAKGRFTIYKTSSTTVELKMTSLTASDTATYFCARHWDSWGPGTLVTISS
VL: B2 VL with L4M, A8E, S10P, Y33R, W96N, F97I, A99V, V107E, V108I
notes: Rabbit monoclonal IgG; also called mAb LA-95
B4: LA-222 (antibody, V domains shown)
VH: EQSVEESGGDLVKPGASLTLTCTASGFSFTYWICWVRQAPGKGLEWIACIYAGSSGDTYYASWAKGRFTISKTSSTTVTLQMTSLTAADTATYFCARSPDYVAWGYDLWGPGTRVTVSS
VL: ELVLTQTPASVSAAVGGTVTINCQASQSIGTNLVWYQQKPGQPPKLLFYYASTLASGVPSRFRGSRSGTEYTLTISDLECADAATYYCQCIYYGGNYGHTFGGGTEVVVK
notes: Rabbit monoclonal IgG
B5: LA-37 (antibody, V domains shown)
VH: EQSLEESGGDLVKPGASLTLTCKASGFSFSSSEFMCWVRQAPGKGLEWIACIYGGLSDDTYFASWAKGRFTISKTSSITVTLQMTSLTAADTATYFCARSCDVNYYGFDPWGPGTLVTISS
VL: ELVLTQTPAPVSAAVGDTVTIKCQASQNKGTNLAWYQQKPGQPPKLLIYLSSTLASGVPPRFKGSRSGTEYTLTISDLECADAATYFCQSTYYGSNGLTFGGGTEVEIK
notes: Rabbit monoclonal IgG; also called mAb LA-37
B6: LA-35 (antibody, V domains shown)
VH: EQSVKESGGRLVTPGTPLTLTCTVSGIDLSYYSMGWFRQAPGKGLEWIGVISSSDSTYYANWAKGRFTISKTSTTVDLKIAGPTTEDTATYFCARVLANSYNAFNLWGPGSLVTISS
VL: ELDLTQTPASVSEPVGGTVTIKCQASQSVGSRLAWYQQKPGQPPKLLIYKASTLASGVPSRFKGSGSGTQFTLTMSDLECADAATYYCQCTNISSAYLGAFGGGTEVEIK
notes: Rabbit monoclonal IgG; also called mAb LA-35
B7: LA-155 (antibody, V domains shown)
VH: EQSLEESGGDLVKPEGSLTLTCTASGFSFNSNYWICWVRQTPGKGLEWIGCIYSGSSGDTYYASWAKGRFTISKTSSTTVTLQMTSLTAADTATYFCARGADYVYWSYGLWGPGTLVTISS
VL: ELVLTQTPASVSAAVGGTLTIKCQASETIGTNLAWYQQKPGQPPKLLIYLASYLASGVSSRFKGSRSGTEFTLTISDLDCDDAATYYCQSTHFGNGHTFGGGTEVVVK
notes: Rabbit monoclonal IgG
B8: LA-252 (antibody, V domains shown)
VH: EQSVEESGGRLVTPGTPLTLTCTASGFTISDYHMCWVRQAPGKGLEWIGLIRASHSTAYASWANGRFTISRTSTTVDLKITSPTSEDTATYFCARYGGSGIGCNLWGPGTLVTISS
VL: ELVLTQTPASVSEPVGGTVTIKCQASQSIDSNLAWYQQKPGQPPKQLIYAVSNLASGVPSRFKGSGSGTEFTLTISDLECADAASYYCECTYYGNSYVGGFGGGTEVEIK
notes: Rabbit monoclonal IgG; Called a potential antagonist antibody
B9: LA-64 (antibody, V domains shown)
VH: EQSLESGGGLITPGGTLTLTCTASGFTVTRYYMNWVRQAPGKGLEWIGYIYASSKTYYANWAKGRFTISKTSTTVDLKMTSLTAEDTGTYFCARGGVGNSGLNLDLWGPGTLVTISS
VL: ELVLTQTPASVSEPVGGTVTIKCQASQSIGSWLAWYQQKPGQPPKLLIYQASRLASGVSSRFGGSGSGTEFTLTISDLECADAATYYCQQAEYSGDVENTFGGGTEVVVK
notes: Rabbit monoclonal IgG; also called mAb LA-64
B10: LA-219 (antibody, V domains shown)
VH: B9 VH with L4V
VL: B9 VL with V3D, L4M
notes: as for B8
B11: LA-151 (antibody, V domains shown)
VH: SSSVEESGGRLVTPGTPLTLTCTVSGFSLGSYAMGWVRQGPGKGLEWIGAVYGTTGYIYFATWAKGRFTISKTSTTVDLKITSPTTEDTATYFCARGYLTDSIANGFGVWGPGTLVTVSS
VL: ELDLTQTPASVSEPVGGTVTIKCQASQTITNRYLAWYQQKPGQPPKLLIYQSSKLASGVSSRFKGSGSGTDFTLTISDLECADAATYYCQCTDYGSTYLGTFGGGTEVEIK
notes: Rabbit monoclonal IgG
B12: LA-117 (antibody, V domains shown)
VH: QSVKESGGDLVKPGASLTLACTASGFSFSDGYYMCWVRQAPGKGLEWIGCIHSSSGSIYYASWAKGRFTISKTSSTMVTLQMSSLTAADTATYFCARDSESYGYNPCELWGPGTLVTISS
VL: ELDLTQTPASVSEAVGGTVTIKCQASQTISNYLAWYQQKPGQRPKLLIYAASSLASGVSSRFRGSRSGTEYTLTITDLECDDAATYYCQCTYYGTTYVGGAFGGGTELEIK
notes: Rabbit monoclonal IgG
B13: LA-101 (antibody, V domains shown)
VH: EQSVEESGGRLVTPGTPLTLTCTVSGFSLSSFHMCWVRQAPGKGLEYIGIIYPGGSTGYANWAKGRFTVSKASNTVDLKISSPTTEDTATYFCARVNYGDWINGMDLWGPGTLVTISS
VL: ELDMTQTPASVSEPVGGTVTIKCQASQSIGSNLAWYQQKPGQRPKLLIYKASTLASGVPSRFKGSGSGTDFTLTISDLECADAASYYCQQAYWSGNVDNVFGGGTEVEIK
notes: Rabbit monoclonal IgG
B14: LA-30 (antibody, V domains shown)
VH: EQSVESGGGLVQPEGSLTLTCKASGFDFSRNAICWVRQAPGKGPEWIACYSFSSSATYYASWAKSRFTISKTSSTTVTLQMTSLTAADTATYFCARVDIYGGSRYWGMWGPGTLVTISS
VL: ELVMTQTPASVEAAVGGTVTIKCQASQNIGGDLAWYQQKPGQPPKLLIYRASTLESGVPSRFSGSGSGTEFTLTISDLECADAATYYCQDTDIGSGAFGGGTELEIK
notes: Rabbit monoclonal IgG; also called mAb LA-30

Assays:
[1] = biological target: T1, LAIR1 on LAIR1 reporter cells; experiment: cell-based or functional assay
[2] = biological target: T1, LAIR1 on LAIR1 reporter cells; experiment: cell-based or functional assay
[3] = biological target: T2, human LAIR1 extracellular domain (ECD) …; experiment: ELISA, LAIR1 ECD coated, mAb titrated, anti-rabbit HRP
Description: (§1) The inventors then used a concentration titration (0-10 μg/ml) by ELISA to determine the LAIR1 monoclonal antibody (mAbs) binding to human LAIR1 ECD. […] For FIGS. 2-39, X axis indicates the antibody concentrations and Y-axis is binding signals, measured as OD (450 nm). To perform the ELISA assay, LAIR1 ECD recombinant protein was coated on high absorption 96-well plates. Serial diluted (3-fold) LAIR1 mAb was added to the coated/blocked plates and detected using goat anti-rabbit F(ab′)2 conjugated HRP as secondary antibody. All assays were repeated 3 times and the titration curves were fitted using 4-parameter fitting curve using the GraphPad software for EC₅₀ estimation.
(§2) Serial dilutions of the LAIR1 monoclonal antibodies (IgGs or scFvs fragments), starting from […] and 3-fold titration down for 12 steps, were added to the 96-well plate for binding by incubating 45 minutes at 37° C. with a cover on the assay plate. Then the plates were washed with PBS containing Tween 20 (0.05% concentration) for 3 times and PBS one time. […] Detection was conducted by adding HRP substrate, TMB (ThermoFisher) for 10 minutes, and stopped by adding 50 μl/well of 2N H2504. The plates were read for absorbance at 450 nm using a plate reader (SpectraMax M4, Molecular Devices). Data were collected and graphed using a 4-parameter fitting curve with GrapPad Prism 7 software for EC₅₀ calculation.

[4] = biological target: T2, human LAIR1 extracellular domain (ECD) …; experiment: ELISA, LAIR1 ECD coated
Description: as §1, §2

[5] = biological target: T1, LAIR1 on LAIR1 reporter cells; experiment: cell-based or functional assay

| Binder | GFP+% of LAIR1 reporter cells, collagen I coated, soluble Ab [1] [%] | GFP+% of LAIR1 reporter cells, collagen I coated, soluble Ab and K562 cells [2] [%] | EC50 [3] [nM] | EC50 (read off the curve) [4] [ng/mL] | GFP+ of LAIR1 reporter cells, Collagen I coated [5] [%] | GFP+ of LAIR1 reporter cells, Collagen I coated + K562 [5] [%] |
| --- | --- | --- | --- | --- | --- | --- |
| B1 | 2.42 | 1.31 | 234 | – | – | – |
| B2 | 1.45 | 0.844 | 0.06 | ~10 | – | – |
| B3 | 0.711 | 0.595 | 0.04 | ~7 | – | – |
| B4 | 0.905 | 0.792 | 0.05 | ~7 | – | – |
| B5 | 0.86 | 1.08 | 0.05 | ~8 | – | – |
| B6 | 1.1 | 1.13 | 0.08 | ~10 | – | – |
| B7 | 0.746 | 0.867 | 0.04 | ~7 | – | – |
| B8 | 0.679 | 0.698 | 0.05 | ~8 | < 5 | < 5 |
| B9 | 1.5 | 2.29 | 0.09 | ~10 | – | – |
| B10 | 0.924 | 2.11 | 0.06 | ~8 | < 5 | < 5 |
| B11 | 0.678 | 1.95 | 0.08 | ~10 | – | – |
| B12 | 3.19 | – | 0.08 | ~10 | – | – |
| B13 | 2.92 | – | 0.05 | ~8 | – | – |
| B14 | 1.51 | 1.94 | 0.07 | ~10 | – | – |
